B1: CelfProcM10: C-terminal leaderA4.3 ProcM enzyme-leader fusion, 10-pair linker, used to modify leader-free SynLib1 (protein)
chain: MSEEQLKAFIAKVQADTSLQEQLKAEGADVVAIAKAAGFTITTEDLNSHRQNLTDDELEGVAGGSASGSGSGSAMESPSSWKTSWLAAIAPDEPHKFDRRLEWDELSEENFFAALNSEPASLEEDDPCFEEALQDALEALKAAWDLPLLPVDNNLNRPFVDVWWPIRCHSAESLRQSFVSDSAGLADEIFDQLADSLLDRLCALGDQVLWEAFNKERTPGTMLLAHLGAAGDGSGPPVREHYERFIQSHRRNGLAPLLKEFPVLGRLIGTVLSLWFQGSVEMLQRICADRTVLQQCFAIPCGHHLKTVKQGLSDPHRGGRAVAVLEFADPNSTANSSMHVVYKPKDMAVDAAYQATLADLNTHSDLSPLRTLAIHNGNGYGYMEHVVHHLCANDKELTNFYFNAGRLTALLHLLGCTDCHHENLIACGDQLLLIDTETLLEADLPDHISDASSTTAQPKPSSLQKQFQRSVLRSGLLPQWMFLGESKLAIDISALGMSPPNKPERIALGWLGFNSDGMMPGRVSQPVEIPTSLPVGIGEVNPFDRFLEDFCDGFSMQSEALIKLRNRWLDVNGVLAHFAGLPRRIVLRATRVYFTIQRQQLEPTALRSPLAQALKLEQLTRSFLLAESKPLHWPIFAAEVKQMQHLDIPFFTHLIDADALQLGGLEQELPGFIQTSGLAAAYERLRNLDTDEIAFQLRLIRGAVEARELHTTPESSPTLPPPATPEALMSSSAETSLEAAKRIAHRLLELAIRDSQGQVEWLGMDLGADGESFSFGPVGLSLYGGSIGIAHLLQRLQAQQVSLMDADAIQTAILQPLVGLVDQPSDDGRRRWWRDQPLGLSGCGGTLLALTLQGEQAMANSLLAAALPRFIEADQQLDLIGGCAGLIGSLVQLGTESALQLALRAGDHLIAQQNEEGAWSSSSSQPGLLGFSHGTAGYAAALAHLHAFSADERYRTAAAAALAYERARFNKDAGNWPDYRSIGRDSDSDEPSFMASWCHGAPGIALGRACLWGTALWDEECTKEIGIGLQTTAAVSSVSTDHLCCGSLGLMVLLEMLSAGPWPIDNQLRSHCQDVAFQYRLQALQRCSAEPIKLRCFGTKEGLLVLPGFFTGLSGMGLALLEDDPSRAVVSQLISAGLWPTESASGSGSGSGSTSGSGSGSAMSEEQLKAFIAKVQADTSLQEQLKAEGADVVAIAKAAGFTITTEDLNSHRQNLTDDELEGVAGG
modifications: Enzyme-Leader-Fusion
B2: CelfProcM5: C-terminal leaderA4.3 ProcM enzyme-leader fusion, 5-pair linker, used to modify leader-free SynLib1 (protein)
chain: MSEEQLKAFIAKVQADTSLQEQLKAEGADVVAIAKAAGFTITTEDLNSHRQNLTDDELEGVAGGSASGSGSGSAMESPSSWKTSWLAAIAPDEPHKFDRRLEWDELSEENFFAALNSEPASLEEDDPCFEEALQDALEALKAAWDLPLLPVDNNLNRPFVDVWWPIRCHSAESLRQSFVSDSAGLADEIFDQLADSLLDRLCALGDQVLWEAFNKERTPGTMLLAHLGAAGDGSGPPVREHYERFIQSHRRNGLAPLLKEFPVLGRLIGTVLSLWFQGSVEMLQRICADRTVLQQCFAIPCGHHLKTVKQGLSDPHRGGRAVAVLEFADPNSTANSSMHVVYKPKDMAVDAAYQATLADLNTHSDLSPLRTLAIHNGNGYGYMEHVVHHLCANDKELTNFYFNAGRLTALLHLLGCTDCHHENLIACGDQLLLIDTETLLEADLPDHISDASSTTAQPKPSSLQKQFQRSVLRSGLLPQWMFLGESKLAIDISALGMSPPNKPERIALGWLGFNSDGMMPGRVSQPVEIPTSLPVGIGEVNPFDRFLEDFCDGFSMQSEALIKLRNRWLDVNGVLAHFAGLPRRIVLRATRVYFTIQRQQLEPTALRSPLAQALKLEQLTRSFLLAESKPLHWPIFAAEVKQMQHLDIPFFTHLIDADALQLGGLEQELPGFIQTSGLAAAYERLRNLDTDEIAFQLRLIRGAVEARELHTTPESSPTLPPPATPEALMSSSAETSLEAAKRIAHRLLELAIRDSQGQVEWLGMDLGADGESFSFGPVGLSLYGGSIGIAHLLQRLQAQQVSLMDADAIQTAILQPLVGLVDQPSDDGRRRWWRDQPLGLSGCGGTLLALTLQGEQAMANSLLAAALPRFIEADQQLDLIGGCAGLIGSLVQLGTESALQLALRAGDHLIAQQNEEGAWSSSSSQPGLLGFSHGTAGYAAALAHLHAFSADERYRTAAAAALAYERARFNKDAGNWPDYRSIGRDSDSDEPSFMASWCHGAPGIALGRACLWGTALWDEECTKEIGIGLQTTAAVSSVSTDHLCCGSLGLMVLLEMLSAGPWPIDNQLRSHCQDVAFQYRLQALQRCSAEPIKLRCFGTKEGLLVLPGFFTGLSGMGLALLEDDPSRAVVSQLISAGLWPTESASGSGSGSAMSEEQLKAFIAKVQADTSLQEQLKAEGADVVAIAKAAGFTITTEDLNSHRQNLTDDELEGVAGG
modifications: Enzyme-Leader-Fusion
B3: CelfProcM15: C-terminal leaderA4.3 ProcM enzyme-leader fusion, 15-pair linker, used to modify leader-free SynLib1 (protein)
chain: MSEEQLKAFIAKVQADTSLQEQLKAEGADVVAIAKAAGFTITTEDLNSHRQNLTDDELEGVAGGSASGSGSGSAMESPSSWKTSWLAAIAPDEPHKFDRRLEWDELSEENFFAALNSEPASLEEDDPCFEEALQDALEALKAAWDLPLLPVDNNLNRPFVDVWWPIRCHSAESLRQSFVSDSAGLADEIFDQLADSLLDRLCALGDQVLWEAFNKERTPGTMLLAHLGAAGDGSGPPVREHYERFIQSHRRNGLAPLLKEFPVLGRLIGTVLSLWFQGSVEMLQRICADRTVLQQCFAIPCGHHLKTVKQGLSDPHRGGRAVAVLEFADPNSTANSSMHVVYKPKDMAVDAAYQATLADLNTHSDLSPLRTLAIHNGNGYGYMEHVVHHLCANDKELTNFYFNAGRLTALLHLLGCTDCHHENLIACGDQLLLIDTETLLEADLPDHISDASSTTAQPKPSSLQKQFQRSVLRSGLLPQWMFLGESKLAIDISALGMSPPNKPERIALGWLGFNSDGMMPGRVSQPVEIPTSLPVGIGEVNPFDRFLEDFCDGFSMQSEALIKLRNRWLDVNGVLAHFAGLPRRIVLRATRVYFTIQRQQLEPTALRSPLAQALKLEQLTRSFLLAESKPLHWPIFAAEVKQMQHLDIPFFTHLIDADALQLGGLEQELPGFIQTSGLAAAYERLRNLDTDEIAFQLRLIRGAVEARELHTTPESSPTLPPPATPEALMSSSAETSLEAAKRIAHRLLELAIRDSQGQVEWLGMDLGADGESFSFGPVGLSLYGGSIGIAHLLQRLQAQQVSLMDADAIQTAILQPLVGLVDQPSDDGRRRWWRDQPLGLSGCGGTLLALTLQGEQAMANSLLAAALPRFIEADQQLDLIGGCAGLIGSLVQLGTESALQLALRAGDHLIAQQNEEGAWSSSSSQPGLLGFSHGTAGYAAALAHLHAFSADERYRTAAAAALAYERARFNKDAGNWPDYRSIGRDSDSDEPSFMASWCHGAPGIALGRACLWGTALWDEECTKEIGIGLQTTAAVSSVSTDHLCCGSLGLMVLLEMLSAGPWPIDNQLRSHCQDVAFQYRLQALQRCSAEPIKLRCFGTKEGLLVLPGFFTGLSGMGLALLEDDPSRAVVSQLISAGLWPTESASGSGSGSGSGSGSGSGSGSTSGSGSGSAMSEEQLKAFIAKVQADTSLQEQLKAEGADVVAIAKAAGFTITTEDLNSHRQNLTDDELEGVAGG
modifications: Enzyme-Leader-Fusion

Molecular target: T1, Human Plasma Kallikrein (Homo sapiens, UniProt P03952)
T1 construct: purchased Molecular Innovations, Inc, USA
Assay: Phage selection of leader-free SynLib1 library modified by Celf ProcM enzyme-leader fusions on biotinylated kallikrein (output titre)
Format: binding
Conditions: for difference in titre using 9.75 nM kallikrein and using 0 nM kallikrein: R3
Experimental: Human Plasma Kallikrein (Molecular Innovations, Inc, USA) at 1.15 mg/ml (13 μM) solution in 4 mM acetate, 150 mM NaCl, pH 5.3 was biotinylated using NHS-PEG4-Biotin from the EZ-link micro-PEO4-biotinylation kit (Pierce Biotechnology, USA). 680 μl of water was added to the contents of the pre-weighed vial of biotinylation reagent to make a 5 mM solution. 1 μl of this solution was added to 100 μl of the kallikrein solution. This was incubated at RT for 1 hour prior to the separation of the biotinylated protein from the unreacted biotin, using a 2 ml Spin Desalting column (Pierce Biotechnology, USA). The volume of the kallikrein was made up to 350 μl with PBS (Formedium Ltd, UK) and was loaded onto the spin column which had been equilibrated with PBS (as per the manufacturer's instructions). When this solution had been absorbed into the column matrix, a further 50 μl of PBS was added on top and the column was spun in a centrifuge at 1000 g for 2 min. 395 μl of solution was collected, making the concentration of the biotinylated kallikrein about 3.25 μM.
150 μl of stock leader-free SynLib1 library (4.5e11 phage per μl) was added to 1850 μl of TE buffer, 2 μl 1 M TCEP (Melford Biolaboratories Ltd, UK) and incubated at RT for 20 minutes to reduce the peptides on the phage. 400 μl of 2.5 M NaCl, 20% w/v PEG 8000 was added, incubated at RT for five minutes and the precipitated phages were collected by centrifugation at 15000 g for five minutes. The supernatant was discarded and the phages were resuspended in 150 μl of 25 mM Tris pH 7.5 (Sigma Aldrich, Austria), 1 μM TCEP.
Selections are performed by removing streptavidin-binding clones by pre-exposing the library to streptavidin resin, which is then discarded, mixing the library with decreasing concentrations of biotinylated target for an hour at each round of selection, capture of the biotinylated target and thereby any phage binding the target with magnetic streptavidin resin followed by extensive washing of the resin. Finally, the washed resin has the phage eluted from the target by exposure to a low pH solution, neutralisation of the solution and infection of E. coli by the eluted phage.
Round 1 (R1) of the selection was performed by adding 50 μl of LodeStars streptavidin resin (Agilent Technologies, USA), from which the liquid had been removed by magnetic capture, to the modified phage solution for 30 minutes to capture the peptide sequence that bind to streptavidin (deselection). The resin was captured magnetically and the phage-containing supernatant was collected and made up to 500 μl with 25 mM Tris pH 7.5, 0.05% Tween 20 (Melford Biolaboratories Ltd, UK). Biotinylated kallikrein was added to 100 nM, and mixed at RT for 1 hour prior to processing on a KingFisher mL (Thermo Fisher, Austria) magnetic particle washer. The processing involved the KingFisher transferring 25 μl of streptavidin resin to the phage solution and mixing for five minutes. The resin/phage were then collected and washed in 8×1 ml of PBS+0.05% Tween 20 (PBST). The resin was then mixed in 50 μl of 50 mM glycine pH 2.2 (Melford Biolaboratories Ltd, UK) for five minutes to elute the phage and the resin was removed. The phage-containing supernatant was neutralised with 10 μl of 1 M Tris pH 8.0 and added to 1 ml of TG1 cells at A600 of 0.6 followed by incubation at 37° C., 250 rpm for 1 hour. The phage titre was determination by adding 4 μl of culture to 96 μl of water, which was used to make five, 10-fold dilutions; 10 μl from each of these was spotted onto an LB+tetracycline agar plate. The remainder of the culture was made up to 11 ml with 2TY plus tetracycline and incubated at 37° C., 250 rpm overnight.
10 ml of overnight culture was reduced with 10 μl of 1 M TCEP for 20 min at RT followed by removal of the cells by centrifugation at 15000 g for five minutes. […]

T1 sequence (P03952 20-638): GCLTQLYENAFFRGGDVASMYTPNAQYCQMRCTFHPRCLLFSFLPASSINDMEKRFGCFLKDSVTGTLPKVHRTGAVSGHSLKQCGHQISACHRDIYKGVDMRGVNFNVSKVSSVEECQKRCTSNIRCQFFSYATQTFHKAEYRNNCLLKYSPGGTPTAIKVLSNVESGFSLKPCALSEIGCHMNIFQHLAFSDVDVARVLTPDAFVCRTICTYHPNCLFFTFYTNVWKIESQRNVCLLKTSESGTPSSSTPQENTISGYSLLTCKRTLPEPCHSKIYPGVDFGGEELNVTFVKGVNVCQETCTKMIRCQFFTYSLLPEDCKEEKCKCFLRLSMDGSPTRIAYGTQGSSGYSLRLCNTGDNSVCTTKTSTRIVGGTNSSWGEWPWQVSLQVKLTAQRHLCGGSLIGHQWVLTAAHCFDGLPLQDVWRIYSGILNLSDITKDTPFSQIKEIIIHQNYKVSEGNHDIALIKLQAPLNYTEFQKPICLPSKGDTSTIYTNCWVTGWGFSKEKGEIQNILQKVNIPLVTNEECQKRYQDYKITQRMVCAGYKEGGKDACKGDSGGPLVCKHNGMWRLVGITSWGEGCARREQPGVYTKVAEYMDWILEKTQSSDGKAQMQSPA

Molecule	output titre (number of phages eluted at the end of the round) (R1, 100 nM kallikrein)	output titre (number of phages eluted at the end of the round) (R2, 33 nM kallikrein)	difference in titre using 9.75 nM kallikrein and using 0 nM kallikrein	output titre (number of phages eluted at the end of the round) (R3, 0 nM kallikrein)	output titre (number of phages eluted at the end of the round) (R3, 9.75 nM kallikrein)
B1	4.2e6	2.9e5	6.5 fold	5.3e4	3.4e5
B2	6.4e5	5.3e5	10 fold	5.0e4	5.0e5
B3	2.7e6	2.7e5	36 fold	2.7e4	9.5e5

Reference: US20170240883A1, “CYCLIC PEPTIDES EXPRESSED BY A GENETIC PACKAGE” (Miti Biosystems GmbH, priority 2014, published 2017)
